The target of assay [1] is T1, recombinant human CD155PVR (human, UniProt P15151 21-343, limits assumed).
T1 sequence (looked up): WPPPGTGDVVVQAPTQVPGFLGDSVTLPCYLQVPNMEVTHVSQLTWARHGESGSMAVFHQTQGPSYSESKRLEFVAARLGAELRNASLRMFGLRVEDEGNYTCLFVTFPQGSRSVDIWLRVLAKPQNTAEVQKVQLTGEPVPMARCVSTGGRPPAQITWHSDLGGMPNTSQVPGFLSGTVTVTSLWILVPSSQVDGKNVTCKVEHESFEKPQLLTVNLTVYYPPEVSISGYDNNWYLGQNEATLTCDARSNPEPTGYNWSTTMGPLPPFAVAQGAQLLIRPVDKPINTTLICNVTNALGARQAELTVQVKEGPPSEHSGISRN
In words: biolayer interferometry (Octet), hPVR; concentration not given. (In general: BLI is a label-free optical method that tracks binding on a fibre tip over time.)

The target of assay [2] is T2, hCD155-Fc (human, UniProt P15151 21-343, limits assumed).
T2 construct: not shown: Fc, not identified
T2 sequence (looked up): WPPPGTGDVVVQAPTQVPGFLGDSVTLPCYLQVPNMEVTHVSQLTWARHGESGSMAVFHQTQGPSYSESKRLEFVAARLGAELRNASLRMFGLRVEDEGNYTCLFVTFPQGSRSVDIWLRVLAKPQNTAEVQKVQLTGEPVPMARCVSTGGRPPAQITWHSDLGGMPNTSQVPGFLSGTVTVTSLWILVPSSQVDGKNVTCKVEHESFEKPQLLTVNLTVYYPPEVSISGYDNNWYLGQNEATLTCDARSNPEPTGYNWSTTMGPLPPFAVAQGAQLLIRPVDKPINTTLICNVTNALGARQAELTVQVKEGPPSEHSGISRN
In words: ELISA as printed: CD155-Fc capture, goat anti-hOX40L detection, anti-goat HRP (legend says CD155PVR-His capture, IgG detection). Background: In an ELISA, binding on a coated surface is turned into a signal by an enzyme label.

A further assay addresses T3, TNFRSF4.
T3 construct: also called TNF Receptor Superfamily Member 4
T3 chain: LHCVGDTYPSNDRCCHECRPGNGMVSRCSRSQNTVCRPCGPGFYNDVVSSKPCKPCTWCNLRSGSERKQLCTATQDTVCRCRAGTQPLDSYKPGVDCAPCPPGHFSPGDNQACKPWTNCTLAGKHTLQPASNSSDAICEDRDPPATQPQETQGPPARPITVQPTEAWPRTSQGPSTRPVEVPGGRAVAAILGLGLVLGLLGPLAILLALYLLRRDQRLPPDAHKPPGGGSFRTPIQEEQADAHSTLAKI
In words: microarray of about 6,000 human membrane proteins.

The next assay has as its target T4, NECTIN4 (human, UniProt Q96NY8).
T4 construct: on the microarray of human membrane proteins; also called Nectin Cell Adhesion Molecule 4
T4 sequence (looked up): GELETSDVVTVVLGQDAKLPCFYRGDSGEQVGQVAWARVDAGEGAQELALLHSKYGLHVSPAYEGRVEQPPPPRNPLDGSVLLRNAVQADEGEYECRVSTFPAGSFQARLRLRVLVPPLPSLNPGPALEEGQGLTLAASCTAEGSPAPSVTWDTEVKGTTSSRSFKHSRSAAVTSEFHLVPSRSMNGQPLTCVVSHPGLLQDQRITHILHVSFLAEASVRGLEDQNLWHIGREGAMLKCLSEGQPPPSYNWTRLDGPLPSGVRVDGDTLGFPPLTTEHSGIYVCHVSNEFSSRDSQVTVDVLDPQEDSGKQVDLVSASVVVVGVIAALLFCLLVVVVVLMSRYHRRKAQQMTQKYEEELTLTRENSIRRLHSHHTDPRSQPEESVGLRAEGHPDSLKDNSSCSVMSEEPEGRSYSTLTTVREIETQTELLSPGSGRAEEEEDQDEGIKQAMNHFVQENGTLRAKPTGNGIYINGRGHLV
In words: microarray of about 6,000 human membrane proteins.

The next assay has as its target Galectin-1 (human, UniProt P09382 2-135, limits assumed). In words: microarray of about 6,000 human membrane proteins.
A further assay deals with T5, PVR (human, UniProt P15151).
T5 construct: on the microarray of human membrane proteins; also called Poliovirus Receptor
T5 sequence (looked up): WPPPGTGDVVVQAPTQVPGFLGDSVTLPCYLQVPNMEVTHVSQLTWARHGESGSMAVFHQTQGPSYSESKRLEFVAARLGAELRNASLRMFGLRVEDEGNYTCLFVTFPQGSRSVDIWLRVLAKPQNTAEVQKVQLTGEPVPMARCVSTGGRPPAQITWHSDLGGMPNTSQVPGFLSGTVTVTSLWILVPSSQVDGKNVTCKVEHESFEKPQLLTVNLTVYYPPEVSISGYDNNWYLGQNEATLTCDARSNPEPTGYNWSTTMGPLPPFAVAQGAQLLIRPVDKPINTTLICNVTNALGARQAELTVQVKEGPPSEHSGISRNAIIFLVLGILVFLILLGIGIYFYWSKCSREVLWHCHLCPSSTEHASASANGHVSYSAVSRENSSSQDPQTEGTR
In words: microarray of about 6,000 human membrane proteins.

For a further assay, the target named is T6, CD155PVR-His.
T6 construct: ELISA capture protein used with both murine and human chimeras; also called CD155-His
In words: ELISA: 'CD115/PVR Capture' as printed (legend: CD155PVR-His), Fc-HRP detection.

For assay [3], the target named is T7, mouse PVR on CHO-K1 cells (mouse).
T7 construct: whole, on cells; also called CHOK1/PVR; mPVR engineered cell line
In words: flow cytometry on CHOK1/PVR cells. On the technique in general: In flow cytometry, cells or beads pass a laser one at a time.

In another assay the target is T8, OX40-Fc.
T8 construct: Capture protein of the dual ELISA
In words: Dual ELISA: OX40-Fc capture, CD155-His detection, 6X His HRP (signal needs both OX40-Fc and CD155-His bound).

Assay [4] has as its target T9, mouse OX40 on CHO-K1 cells (mouse, UniProt P47741 20-272).
T9 construct: whole, on cells; also called CHOK1-mOX40
T9 sequence (looked up): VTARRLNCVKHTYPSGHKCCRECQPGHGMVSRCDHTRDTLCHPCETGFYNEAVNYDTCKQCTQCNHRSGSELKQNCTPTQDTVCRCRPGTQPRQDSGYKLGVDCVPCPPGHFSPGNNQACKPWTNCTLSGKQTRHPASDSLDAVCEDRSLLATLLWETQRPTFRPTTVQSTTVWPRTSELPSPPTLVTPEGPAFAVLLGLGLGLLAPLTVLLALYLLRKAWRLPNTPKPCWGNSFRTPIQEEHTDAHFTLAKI
In words: flow cytometry on CHOK1-mOX40 cells.

The target in a further assay is recombinant human LTbR (human, UniProt P36941 31-227, limits assumed). In words: biolayer interferometry (Octet), human LTbR.
Chain of recombinant human LTbR (P36941 31-227 limits assumed): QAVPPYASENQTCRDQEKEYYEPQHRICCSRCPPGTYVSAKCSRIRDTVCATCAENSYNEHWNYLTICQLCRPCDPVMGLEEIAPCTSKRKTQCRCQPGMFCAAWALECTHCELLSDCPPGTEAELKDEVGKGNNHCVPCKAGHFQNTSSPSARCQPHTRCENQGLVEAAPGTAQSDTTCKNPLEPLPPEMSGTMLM
Assay [5] addresses T2, hCD155-Fc. In words: Dual ELISA: hCD155-Fc capture, hLTBR-His detection, 6x His HRP.
Another assay addresses T10, human LTBR-His (human, UniProt P36941 31-227, limits assumed).
T10 construct: also called hLTBR-His
The assay is described as above.

T10 sequence (P36941 31-227 limits assumed): as above
Chain of Galectin-1 (P09382 2-135 limits assumed): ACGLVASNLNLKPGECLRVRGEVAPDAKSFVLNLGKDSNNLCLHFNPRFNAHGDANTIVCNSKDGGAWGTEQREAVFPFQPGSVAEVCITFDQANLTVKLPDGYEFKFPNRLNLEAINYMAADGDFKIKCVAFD

B1: human TIGIT-Fc-OX40L chimeric protein (Fc fusion)
chain: MMTGTIETTGNISAEKGGSIILQCHLSSTTAQVTQVNWEQQDQLLAICNADLGWHISPSFKDRVAPGPGLGLTLQSLTVNDTGEYFCIYHTYPDGTYTGRIFLEVLESSVAEHGARFQIPSKYGPPCPPCPAPEFLGGPSVFLFPPKPKDQLMISRTPEVTCVVVDVSQEDPEVQFNWYVDGVEVHNAKTKPREEQFNSTYRVVSVLTVLHQDWLSGKEYKCKVSSKGLPSSIEKTISNATGQPREPQVYTLPPSQEEMTKNQVSLTCLVKGFYPSDIAVEWESNGQPENNYKTTPPVLDSDGSFFLYSRLTVDKSRWQEGNVFSCSVLHEALHNHYTQKSLSLSLGKIEGRMDQVSHRYPRIQSIKVQFTEYKKEKGFILTSQKEDEIMKVQNNSVIINCDGFYLISLKGYFSQEVNISLHYQKDEEPLFQLKKVRSVNSLMVASLTYKDKVYLNVTTDNTSLDDFHVNGGELILIHQNPGEFCVL
notes: also called hTIGIT-Fc-OX40L
As to B1, the binding result (in [1]; in the assay with hCD155-Fc [2]; with TNFRSF4; with NECTIN4; in the assay with Galectin-1; with PVR) was “binds” each time.

B2: murine TIGIT-Fc-OX40L chimeric protein (Fc fusion)
chain 1: TIDTKRNISAEEGGSVILQCHFSSDTAEVTQVDWKQQDQLLAIYSVDLGWHVASVFSDRVVPGPSLGLTFQSLTMNDTGEYFCTYHTYPGGIYKGRIFLKVQESSDDRNGLAQFQTAPLG
chain 2: SSSPAKDPPIQRLRGAVTRCEDGQLFISSYKNEYQTMEVQNNSVVIKCDGLYIIYLKGSFFQEVKIDLHFREDHNPISIPMLNDGRRIVFTVVASLAFKDKVYLTVNAPDTLCEHLQINDGELIVVQLTPGYCAPEGSYHSTVNQVPL
With B2, the entries for the concentration giving a half-maximal response (EC50 (read off the curve)) with CD155PVR-His and with OX40-Fc were approximately 4 nM and approximately 8 nM, respectively. The figures for the 50% effective concentration (EC50) in assay [3] and in assay [4] were 4.63 nM and 1.7 nM, respectively.

B3: human TIGIT-Fc-LIGHT chimeric protein (Fc fusion)
chain: MMTGTIETTGNISAEKGGSIILQCHLSSTTAQVTQVNWEQQDQLLAICNADLGWHISPSFKDRVAPGPGLGLTLQSLTVNDTGEYFCIYHTYPDGTYTGRIFLEVLESSVAEHGARFQIPSKYGPPCPPCPAPEFLGGPSVFLFPPKPKDQLMISRTPEVTCVVVDVSQEDPEVQFNWYVDGVEVHNAKTKPREEQFNSTYRVVSVLTVLHQDWLSGKEYKCKVSSKGLPSSIEKTISNATGQPREPQVYTLPPSQEEMTKNQVSLTCLVKGFYPSDIAVEWESNGQPENNYKTTPPVLDSDGSFFLYSRLTVDKSRWQEGNVFSCSVLHEALHNHYTQKSLSLSLGKIEGRMDLQLHWRLGEMVTRLPDGPAGSWEQLIQERRSHEVNPAAHLTGANSSLTGSGGPLLWETQLGLAFLRGLSYHDGALVVTKAGYYYIYSKVQLGGVGCPLGLASTITHGLYKRTPRYPEELELLVSQQSPCGRATSSSRVWWDSSFLGGVVHLEAGEKVVVRVLDERLVRLRDGTRSYFGAFMV
notes: also called hTIGIT-Fc-LIGHT; hTIGIT-1-Fc-LIGHT
Regarding B3, the binding result (with recombinant human LTbR; in the assay with hCD155-Fc [5]; with human LTBR-His; in assay [1]) was “binds” in each case.

The values above are taken from patent US20240190939A1 (SHATTUCK LABS, published 2024).
